Biological target: T1, NaPI-insensitive chymotrypsin from H. punctigera (HpCh5), native enzyme from the larval gut (Helicoverpa punctigera)
T1 construct: also called NaPI-insensitive protease; Rech1a
Test: affinity column of immobilized recombinant C1, trypsin-depleted gut extract passed through
Description: The midgut was dissected from 80 fourth instar larvae and buffer soluble extracts were prepared. The gut extract was depleted of trypsins by repeated passage through a benzamidine-Sepharose affinity column. […] This column was expected to specifically bind NaPI-sensitive chymotrysins.
The filtered gut extract was passed through the benzamidine column five times to remove the trypsins.

T1 sequence (chain, as listed by the source limits assumed): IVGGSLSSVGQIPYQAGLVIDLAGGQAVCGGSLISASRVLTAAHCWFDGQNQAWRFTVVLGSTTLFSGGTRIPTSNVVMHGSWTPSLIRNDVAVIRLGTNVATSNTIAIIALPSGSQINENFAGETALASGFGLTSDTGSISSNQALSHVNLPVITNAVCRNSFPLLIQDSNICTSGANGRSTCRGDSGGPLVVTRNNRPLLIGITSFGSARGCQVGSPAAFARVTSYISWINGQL

B1: recombinant C1 inhibitor with N-terminal hexahistidine tag, expressed in E. coli (other)
chain: DRICTNCCAGTKGCKYFSDDGTFVCEGESDPRNPKACTLNCDPRIAYGVCPRSEEKKN
notes: also called 6H.C1; not shown: hexahistidine tag at the N-terminus from the pQE-30 vector
binding result: no binding
